Measured values reported in IntAct's records for PubMed 21460798.

B1: APC/C-CDH1 modulator 1 (Saccharomyces cerevisiae), Q08981 (parent)
chain: MISPSKKRTILSSKNINQKPRAVVKGNELRSPSKRRSQIDTDYALRRSPIKTIQISKAAQFMLYEETAEERNIAVHRHNEIYNNNNSVSNENNPSQVKENLSPAKICPYERAFLREGGRIALKDLSVDEFKGYIQDPLTDETIPLTLPLGDKKISLPSFITPPRNSKISIFFTSKHQGQNPETKISRSTDDVSEKKVVRKLSFHVYEDE
partner: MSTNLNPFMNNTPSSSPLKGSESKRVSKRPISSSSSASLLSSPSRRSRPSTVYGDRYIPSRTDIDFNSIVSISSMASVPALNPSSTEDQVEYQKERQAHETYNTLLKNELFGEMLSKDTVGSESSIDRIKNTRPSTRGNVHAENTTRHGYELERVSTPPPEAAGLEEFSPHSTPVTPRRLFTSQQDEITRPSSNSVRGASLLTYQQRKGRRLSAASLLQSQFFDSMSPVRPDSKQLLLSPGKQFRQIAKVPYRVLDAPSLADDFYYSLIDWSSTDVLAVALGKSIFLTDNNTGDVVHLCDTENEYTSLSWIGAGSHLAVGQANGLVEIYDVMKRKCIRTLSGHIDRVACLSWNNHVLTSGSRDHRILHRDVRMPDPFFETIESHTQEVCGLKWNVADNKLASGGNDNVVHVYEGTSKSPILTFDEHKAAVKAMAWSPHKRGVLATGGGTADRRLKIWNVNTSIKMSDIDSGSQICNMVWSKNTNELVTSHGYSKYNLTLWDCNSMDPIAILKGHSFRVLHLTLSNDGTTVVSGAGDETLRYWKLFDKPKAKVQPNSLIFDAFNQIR
B2: Probable serine/threonine-protein kinase HSL1 (Saccharomyces cerevisiae), P34244 (parent)
chain: MTGHVSKTSHVPKGRPSSLAKKAAKRAMAKVNSNPKRASGHLERVVQSVNDATKRLSQPDSTVSVATKSSKRKSRDTVGPWKLGKTLGKGSSGRVRLAKNMETGQLAAIKIVPKKKAFVHCSNNGTVPNSYSSSMVTSNVSSPSIASREHSNHSQTNPYGIEREIVIMKLISHTNVMALFEVWENKSELYLVLEYVDGGELFDYLVSKGKLPEREAIHYFKQIVEGVSYCHSFNICHRDLKPENLLLDKKNRRIKIADFGMAALELPNKLLKTSCGSPHYASPEIVMGRPYHGGPSDVWSCGIVLFALLTGHLPFNDDNIKKLLLKVQSGKYQMPSNLSSEARDLISKILVIDPEKRITTQEILKHPLIKKYDDLPVNKVLRKMRKDNMARGKSNSDLHLLNNVSPSIVTLHSKGEIDESILRSLQILWHGVSRELITAKLLQKPMSEEKLFYSLLLQYKQRHSISLSSSSENKKSATESSVNEPRIEYASKTANNTGLRSENNDVKTLHSLEIHSEDTSTVNQNNAITGVNTEINAPVLAQKSQFSINTLSQPESDKAEAEAVTLPPAIPIFNASSSRIFRNSYTSISSRSRRSLRLSNSRLSLSASTSRETVHDNEMPLPQLPKSPSRYSLSRRAIHASPSTKSIHKSLSRKNIAATVAARRTLQNSASKRSLYSLQSISKRSLNLNDLLVFDDPLPSKKPASENVNKSEPHSLESDSDFEILCDQILFGNALDRILEEEEDNEKERDTQRQRQNDTKSSADTFTISGVSTNKENEGPEYPTKIEKNQFNMSYKPSENMSGLSSFPIFEKENTLSSSYLEEQKPKRAALSDITNSFNKMNKQEGMRIEKKIQREQLQKKNDRPSPLKPIQHQELRVNSLPNDQGKPSLSLDPRRNISQPVNSKVESLLQGLKFKKEPASHWTHERGSLFMSEHVEDEKPVKASDVSIESSYVPLTTVATSSRDPSVLAESSTIQKPMLSLPSSFLNTSMTFKNLSQILADDGDDKHLSVPQNQSRSVAMSHPLRKQSAKISLTPRSNLNANLSVKRNQGSPGSYLSNDLDGISDMTFAMEIPTNTFTAQAIQLMNNDTDNNKINTSPKASSFTKEKVIKSAAYISKEKEPDNSDTNYIPDYTIPNTYDEKAINIFEDAPSDEGSLNTSSSESDSRASVHRKAVSIDTMATTNVLTPATNVRVSLYWNNNSSGIPRETTEEILSKLRLSPENPSNTHMQKRFSSTRGSRDSNALGISQSLQSMFKDLEEDQDGHTSQADILESSMSYSKRRPSEESVNPKQRVTMLFDEEEEESKKVGGGKIKEEHTKLDNKISEESSQLVLPVVEKKENANNTENNYSKIPKPSTIKVTKDTAMESNTQTHTKKPILKSVQNVEVEEAPSSDKKNWFVKLFQNFSSHNNATKASKNHVTNISFDDAHMLTLNEFNKNSIDYQLKNLDHKFGRKVVEYDCKFVKGNFKFKIKITSTPNASTVITVKKRSKHSNTSSNKAFEKFNDDVERVIRNAGRS
partner: B1 partner
B3: APC/C activator protein CDH1 (Saccharomyces cerevisiae), P53197 (parent)
chain: B1 partner
partner: B1 chain

Variants of: B1
Settings: with cdh1_yeast CDH1, P53197

| Variant | effect of a mutation on the interaction |
| --- | --- |
| MISPSKKRTILSSKNINQKPRAVVKGNELRSPSKRRSQIDTDYALRRSPIKTIQISKAAQFMLYEETAEERNIAVHRHNEIYNNNNSVSNENNPSQVKENLSPAKICPYERAFLREGGRIAAKDLSVDEFKGYIQDPLTDETIPLTLPLGDKKISLPSFITPPRNSKISIFFTSKHQGQNPETKISRSTDDVSEKKVVRKLSFHVYEDE [L122A] | disrupting interaction |
| MISPSKKRTILSSKNINQKPRAVVKGNELRSPSKRRSQIDTDYALRRSPIKTIQISKAAQFMLYEETAEERNIAVHRHNEIYNNNNSVSNENNPSQVKANLSPAKICPYERAFLREGGRIALKDLSVDEFKGYIQDPLTDETIPLTLPLGDKKISLPSFITPPRNSKISIFFTSKHQGQNPETKISRSTDDVSEKKVVRKLSFHVYEDE [E99A] | disrupting interaction |

Variants of: B1
Settings: with cdh1_yeast CDH1, P53197
Remark: another data set of the same source

| Variant | effect of a mutation on the interaction |
| --- | --- |
| MISPSKKATILSSKNINQKPRAVVKGNELRSPSKRRSQIDTDYALRRSPIKTIQISKAAQFMLYEETAEERNIAVHRHNEIYNNNNSVSNENNPSQVKENLSPAKICPYERAFLREGGRIALKDLSVDEFKGYIQDPLTDETIPLTLPLGDKKISLPSFITPPRNSKISIFFTSKHQGQNPETKISRSTDDVSEKKVVRKLSFHVYEDE [R8A] | disrupting interaction |

Variants of: B1
Settings: with cdh1_yeast CDH1, P53197
Remark: another data set of the same source

| Variant | effect of a mutation on the interaction |
| --- | --- |
| MISPSKKRTILSSKNINQKPRAVVKGNELRSPSKRRSQIDTDYALRRSPIKTIQISKAAQFMLYEEAAEERNIAVHRHNEIYNNNNSVSNENNPSQVKENLSPAKICPYERAFLREGGRIALKDLSVDEFKGYIQDPLTDETIPLTLPLGDKKISLPSFITPPRNSKISIFFTSKHQGQNPETKISRSTDDVSEKKVVRKLSFHVYEDE [T67A] | disrupting interaction |

Variants of: B1
Settings: with cdh1_yeast CDH1, P53197
Remark: another data set of the same source

| Variant | effect of a mutation on the interaction |
| --- | --- |
| MISPSKKRTILSSKNINQKPRAVVKGNELRSPSKRRSQIDTDYALRRSPIKTIQISKAAQFMLYEEAAEERNIAVHRHNEIYNNNNSVSNENNPSQVKENLSPAKICPYERAFLREGGRIALKDLSVDEFKGYIQDPLTDETIPLTLPLGDKKISLPSFITPPRNSKISIFFTSKHQGQNPETKISRSTDDVSEKKVVRKLSFHVYEDE [T67A] | decreasing interaction |

Variants of: B2
Settings: with cdh1_yeast CDH1, P53197

| Variant | effect of a mutation on the interaction |
| --- | --- |
| E781A | disrupting interaction |
| N777A | disrupting interaction |

Results, then the variant that gave them:

| effect of a mutation on the interaction | Variant |
| --- | --- |
| disrupting interaction | K775A |
| disrupting interaction | E776A |

Variants of: B3
Settings: with acm1_yeast ACM1, Q08981

| Variant | effect of a mutation on the interaction |
| --- | --- |
| MSTNLNPFMNNTPSSSPLKGSESKRVSKRPISSSSSASLLSSPSRRSRPSTVYGDRYIPSRTDIDFNSIVSISSMASVPALNPSSTEDQVEYQKERQAHETYNTLLKNELFGEMLSKDTVGSESSIDRIKNTRPSTRGNVHAENTTRHGYELERVSTPPPEAAGLEEFSPHSTPVTPRRLFTSQQDEITRPSSNSVRGASLLTYQQRKGRRLSAASLLQSQFFDSMSPVRPDSKQLLLSPGKQFRQIAKVPYRVLDAPSLADDFYYSLIDWSSTDVLAVALGKSIFLTDNNTGDVVHLCDTENEYTSLSWIGAGSHLAVGQANGLVEIYDVMKRKCIRTLSGHIDRVACLSWNNHVLTSGSRDHRILHRDVRMPDPFFETIESHTQEVCGLKWNVADNKLASGGNDNVVHVYEGTSKSPILTFDEHKAAVKAMAWSPHKRGVLATGGGTADRRLKIWNVNTSIKMSDIDSGSQICNMVWSKNTNELVTSHGYSKYNLTLWDCNSMDPIAILKGHSFRVLHLTLSNDGTTVVSGAADETLRYWKLFDKPKAKVQPNSLIFDAFNQIR [G535A] | disrupting interaction |
| MSTNLNPFMNNTPSSSPLKGSESKRVSKRPISSSSSASLLSSPSRRSRPSTVYGDRYIPSRTDIDFNSIVSISSMASVPALNPSSTEDQVEYQKERQAHETYNTLLKNELFGEMLSKDTVGSESSIDRIKNTRPSTRGNVHAENTTRHGYELERVSTPPPEAAGLEEFSPHSTPVTPRRLFTSQQDEITRPSSNSVRGASLLTYQQRKGRRLSAASLLQSQFFDSMSPVRPDSKQLLLSPGKQFRQIAKVPYRVVDAPSLADDFYYSLIDWSSTDVLAVALGKSIFLTDNNTGDVVHLCDTENEYTSLSWIGAGSHLAVGQANGLVEIYDVMKRKCIRTLSGHIDRVACLSWNNHVLTSGSRDHRILHRDVRMPDPFFETIESHTQEVCGLKWNVADNKLASGGNDNVVHVYEGTSKSPILTFDEHKAAVKAMAWSPHKRGVLATGGGTADRRLKIWNVNTSIKMSDIDSGSQICNMVWSKNTNELVTSHGYSKYNLTLWDCNSMDPIAILKGHSFRVLHLTLSNDGTTVVSGAGDETLRYWKLFDKPKAKVQPNSLIFDAFNQIR [L255V] | disrupting interaction |
| MSTNLNPFMNNTPSSSPLKGSESKRVSKRPISSSSSASLLSSPSRRSRPSTVYGDRYIPSRTDIDFNSIVSISSMASVPALNPSSTEDQVEYQKERQAHETYNTLLKNELFGEMLSKDTVGSESSIDRIKNTRPSTRGNVHAENTTRHGYELERVSTPPPEAAGLEEFSPHSTPVTPRRLFTSQQDEITRPSSNSVRGASLLTYQQRKGRRLSAASLLQSQFFDSMSPVRPDSKQLLLSPGKQFRQIAKVPYRVLDAASLADDFYYSLIDWSSTDVLAVALGKSIFLTDNNTGDVVHLCDTENEYTSLSWIGAGSHLAVGQANGLVEIYDVMKRKCIRTLSGHIDRVACLSWNNHVLTSGSRDHRILHRDVRMPDPFFETIESHTQEVCGLKWNVADNKLASGGNDNVVHVYEGTSKSPILTFDEHKAAVKAMAWSPHKRGVLATGGGTADRRLKIWNVNTSIKMSDIDSGSQICNMVWSKNTNELVTSHGYSKYNLTLWDCNSMDPIAILKGHSFRVLHLTLSNDGTTVVSGAGDETLRYWKLFDKPKAKVQPNSLIFDAFNQIR [P258A] | disrupting interaction |
